Measured values: US20160084841A1, “Method for Predicting Clinical Effect of Immunotherapy” (INTERNATIONAL INSTITUTE OF CANCER IMMUNOLOGY, INC., priority 2013, published 2016)

Columns and labels:
[1] = tested on: anti-WT1235 peptide IgG antibody; test: ELISA using variant WT1 antigen peptide as immobilized antigen to assay anti-WT1235 peptide IgG antibody; format: binding, human; settings: serum of thymic carcinoma patient given WT1235 peptide; increase in titer detected; FIG. 19
Description: WK235-243 (SEQ ID NO: 62) and WT237-243 (SEQ ID NO: 63) were synthesized by GL Biochem (Shanghai) Corporation Ltd. WT1-frg2 (SEQ ID NO: 61) was prepared in the same way as in the aforementioned WT1-frg3 (SEQ ID NO: 57).
The measurement of the antibody titer using WT1-frg2 (SEQ ID NO: 61) was performed in the same way as in the aforementioned WT1-frg3 (SEQ ID NO: 57). The measurement of the antibody titer using WK235-243 (SEQ ID NO: 62) or WT237-243 (SEQ ID NO: 63) was performed in the same way as in the aforementioned WT332-347 (SEQ ID NO: 58), etc.

[2] = tested on: anti-WT1126 peptide IgG antibody; test: ELISA using variant WT1 antigen peptide as immobilized antigen to assay anti-WT1126 peptide IgG antibody; format: binding, human; settings: serum of pancreatic cancer patient given WT1126 peptide; increase in titer detected; FIG. 20
Description: WT126-134 (SEQ ID NO: 65), WK126-134 (SEQ ID NO: 66), WT128-134 (SEQ ID NO: 67), WT126-132 (SEQ ID NO: 68), WT129-134 (SEQ ID NO: 69), WT126-131 (SEQ ID NO: 70), and WT126-130 (SEQ ID NO: 71) were synthesized by GL Biochem (Shanghai) Corporation Ltd. WT1-frg1 (SEQ ID NO: 64) was prepared in the same way as in the aforementioned WT1-frg3 (SEQ ID NO: 57).
The measurement of the antibody titer using WT1-frg1 (SEQ ID NO: 64) was performed in the same way as in the aforementioned WT1-frg3 (SEQ ID NO: 57). The measurement of the antibody titer using WT126-134 (SEQ ID NO: 65), WK126-134 (SEQ ID NO: 66), WT128-134 (SEQ ID NO: 67), WT126-132 (SEQ ID NO: 68), WT129-134 (SEQ ID NO: 69), WT126-131 (SEQ ID NO: 70), or WT126-130 (SEQ ID NO: 71) was performed in the same way as in the aforementioned WT332-347 (SEQ ID NO: 58), etc.

Molecule	ability as ELISA antigen to measure anti-WT1235 IgG antibody level in patient's serum [1]	ability as ELISA antigen to measure anti-WT1126 IgG antibody level in patient's serum [2]
WT1-frg2: long chain peptide (145 aa, SEQ ID NO: 61) containing the whole length (Y2M) of the administered WT1235 peptide (protein) DPMGQQGSLGEQQYSVPPPVYGCHTPTDSCTGSQALLLRTPYSSDNLYQMTSQLECMTWNQMNLGATLKGVAAGSSSSVKWTEGQSNHSTGYESDNHTTPILCGAQYRIHTHGVFRGIQDVRRVPGVAPTLVRSASETSEKRPFM	could measure an anti-WT1235 IgG antibody level in patient's serum	
WT1-frg1: long-chain peptide (182 aa, SEQ ID NO: 64) containing the whole length of the administered WT1126 peptide (protein) MGSDVRDLNALLPAVPSLGGGGGCALPVSGAAQWAPVLDFAPPGASAYGSLGGPAPPPAPPPPPPPPPHSFIKQEPSWGGAEPHEEQCLSAFTVHFSGQFTGTAGACRYGPFGPPPPSQASSGQARMFPNAPYLPSCLESQPAIRNQGYSTVTFDGTPSYGHTPSHHAAQFPNHSFKHEDPM		could measure an anti-WT1126 IgG antibody level in patient's serum
